Key:
[1] = target: T1, Soluble heterodimeric CD3 protein (hCD3-epsilon/hCD3-delta) with either a human Fc tag (hFcΔAdp/hFc) or a … (human, UniProt P07766 23-126; P04234 22-105); experiment: SPR Biacore 25C antigen-capture, 1-arm
T1 construct: also called hCD3ε/δ; not shown: Fc tag: human (hFcΔAdp/hFc)
Procedure: In the antigen-capture format, heterodimeric CD3 protein was captured using a rabbit anti-mouse Fc or mouse anti-human Fc and the respective antibodies were injected over the captured antigen.
(§1) Kinetic association (kₐ) and dissociation (kd) rate constants were determined by processing and fitting the data to a 1:1 binding model using Scrubber 2.0 curve fitting software. Binding dissociation equilibrium constants (KD) and dissociative half-lives (t₁₁₂) were calculated from the kinetic rate constants as: KD (M)=kd/kₐ; and t_{1/2} (min)=(ln 2/(60*kd). NT=not tested; NB=no binding observed.

[2] = target: T1, Soluble heterodimeric CD3 protein …; experiment: SPR Biacore 25C antibody-capture, 1-arm
Procedure: (§2) Soluble heterodimeric CD3 protein (hCD3-epsilon/hCD3-delta; SEQ ID NOs:1652/1653) with either a human Fc tag (hFcΔAdp/hFc; SEQ ID NOs:1683/1684) or a mouse Fc tag (mFcΔAdp/mFc; SEQ ID NOs:1685/1686) was injected over the antibody captured surface and the binding response was recorded. Heterodimeric CD3 protein was purified using the method described in Davis et al. (US2010/0331527).
as §1

[3] = target: T1, Soluble heterodimeric CD3 protein …; experiment: SPR Biacore 25C antibody-capture
Procedure: Measurements were conducted on a T200 Biacore™ instrument.
as §2, §1

[4] = target: T1, Soluble heterodimeric CD3 protein …; experiment: SPR Biacore 25C antigen-capture
Summary of the method: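 Rate constants fitted to a 1:1 model, giving KD as kd/ka and dissociative half-life as ln2/(60·kd) minutes. Antibodies flowed over CD3ε/δ heterodimer captured on anti-human or anti-mouse Fc surfaces, run on a Biacore T200 at 25 °C.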

T1 sequence (P07766 23-126 limits assumed, stated change not applied, chain 1 of 2): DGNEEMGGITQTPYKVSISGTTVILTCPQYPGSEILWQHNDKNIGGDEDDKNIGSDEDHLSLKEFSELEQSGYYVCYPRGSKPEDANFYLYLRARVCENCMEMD
T1 sequence (P04234 22-105 limits assumed, stated change not applied, chain 2 of 2): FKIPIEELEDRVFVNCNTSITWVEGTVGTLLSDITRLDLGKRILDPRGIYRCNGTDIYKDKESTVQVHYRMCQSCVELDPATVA

Kd [1]	T½ [1]	koff [1]	kon [1]	Kd [2]	T½ [2]	koff [2]	kon [2]	Kd [3]	T½ [3]	koff [3]	kon [3]	Kd [4]	T½ [4]	koff [4]	kon [4]	binding result [2]	Binder
0.498 nM	48 min	0.000238 s⁻¹	479000 M⁻¹ s⁻¹	18.3 nM	43 min	0.000267 s⁻¹	14600 M⁻¹ s⁻¹										H1H7203P (monovalent 1-arm) (antibody, human IgG1, V domains shown, Monovalent 1-arm: second Fab removed, only the Fc portion (CH2-CH3) expressed; human IgG1 Fc; tied by numerical identifier; also called H1H7203B) VH: EVQLVQSGGGLVQPGRSLRLSCAASGFTFADYTMHWVRQTPGKGLEWVSGISWNSGSKDYADSVKGRFTISRDNAKNSLYLQMNSLRTEDTALYYCAKYGSGYGRYFFYAMDVWGQGTTVTVSS VL: not shown
0.279 nM	120 min	9.61e-05 s⁻¹	345000 M⁻¹ s⁻¹	11.3 nM	73 min	0.000159 s⁻¹	14100 M⁻¹ s⁻¹										H1H7211P (monovalent 1-arm) (antibody, human IgG1, V domains shown, Monovalent 1-arm: second Fab removed, only the Fc portion (CH2-CH3) expressed; human IgG1 Fc; tied by numerical identifier; also called H1H7211B) VH: EVQLVESGGGLVHPGRSLRLSCTASGFKFADYTMHWVRQAPGKGLEWVSDISWNSGSKGYADSVKGRFTISRDNDKNSLYLQMNSLRGEDTALYYCAKDGSGYGRFHFYAIDVWGQGTTVTVSS VL: not shown
2.63 nM	11 min	0.00101 s⁻¹	383000 M⁻¹ s⁻¹	30.9 nM	17 min	0.000664 s⁻¹	21500 M⁻¹ s⁻¹										H1H7242P (monovalent 1-arm) (antibody, human IgG1, V domains shown, Monovalent 1-arm: second Fab removed, only the Fc portion (CH2-CH3) expressed; human IgG1 Fc; tied by numerical identifier; also called H1H7242B) VH: EVQLVESGGGLVQPGRSLRLSCAASGFTFDDYTMHWVRQGPGKGLEWVSDIGWNSNSIGYADSVKGRFTISRDNAKNSLYLQMNSLRPEDTALYFCVKDKSGYGKFFIGLDVWGQGTMVTVSS VL: not shown
0.82 nM	61 min	0.000189 s⁻¹	231000 M⁻¹ s⁻¹	10.5 nM	47 min	0.000247 s⁻¹	23400 M⁻¹ s⁻¹										H1H7250P (monovalent 1-arm) (antibody, human IgG1, V domains shown, Monovalent 1-arm: second Fab removed, only the Fc portion (CH2-CH3) expressed; human IgG1 Fc; tied by numerical identifier; also called H1H7250B) VH: QVQLVESGGGLVQPGRSLRLSCAASGFTFDDYTMHWVRQGPGKGLEWVSDIGWNSNTKGYADSVKGRFTISRDNAKNSLYLQMNSLRPEDTALYFCVKDKSGYGKFFIGLDVWGQGTMVTVSS VL: not shown
1.26 nM	49 min	0.000236 s⁻¹	187000 M⁻¹ s⁻¹	22 nM	39 min	0.000295 s⁻¹	13400 M⁻¹ s⁻¹										H1H7241P (monovalent 1-arm) (antibody, human IgG1, V domains shown, Monovalent 1-arm: second Fab removed, only the Fc portion (CH2-CH3) expressed; human IgG1 Fc; tied by numerical identifier; also called H1H7241B) VH: EVQLVESGGGLVQPGRSLRLSCAASGFTFADYTMHWVRQGPGKGLEWVSDIGWNSNTIGYADSVKGRFAISRDNAKNSLYLQMNSLRPEDTALYYCVKDKSGYGKFQYGLDVWGQGTTVTVSS VL: not shown
2.12 nM	32 min	0.000365 s⁻¹	173000 M⁻¹ s⁻¹	25.3 nM	32 min	0.000362 s⁻¹	14300 M⁻¹ s⁻¹										H1H7204P (monovalent 1-arm) (antibody, human IgG1, V domains shown, Monovalent 1-arm: second Fab removed, only the Fc portion (CH2-CH3) expressed; human IgG1 Fc; tied by numerical identifier; also called H1H7204B) VH: EVQLVESRGALVQPGRSLRLSCAASGFAFNDYTMHWVRQAPGKGLEWVSDISWNSNSKDYADSVKGRFTISRDNAKNSLYLQMNSLRAEDTALYYCVKDGSGYGKFSLYALDVWGQGTTVTVSS VL: not shown
1.27 nM	57 min	0.000204 s⁻¹	161000 M⁻¹ s⁻¹	24.2 nM	43 min	0.000269 s⁻¹	11100 M⁻¹ s⁻¹										H1H7233P (monovalent 1-arm) (antibody, human IgG1, V domains shown, Monovalent 1-arm: second Fab removed, only the Fc portion (CH2-CH3) expressed; human IgG1 Fc; tied by numerical identifier; also called H1H7233B) VH: EVQLVESGGGLVQPGGSLRLSCEASGFTFADYTLHWVRQAPGKGLEWVSDISWNSGTRGYADSVRGRFTISRDNAKKSLYLQMNSLRSEDTALYYCVKDGSGYGRYNFYAMDVWGQGTTVTVSS VL: not shown
2.49 nM	25 min	0.000461 s⁻¹	185000 M⁻¹ s⁻¹	41.3 nM	26 min	0.000443 s⁻¹	10700 M⁻¹ s⁻¹										H1H7196P (monovalent 1-arm) (antibody, human IgG1, V domains shown, Monovalent 1-arm: second Fab removed, only the Fc portion (CH2-CH3) expressed; human IgG1 Fc; tied by numerical identifier; also called H1H7196B) VH: EVQLVESGGGMVQPGRSLRLSCAASGFPFNDYTMHWVRQVPGRGLEWVSDISWNSGSKGYADSVKGRFIISRDNAKNSLYLQMNSLRVEDTALYYCVKDGSGYGRFHYYAMDVWGQGTTVTVSS VL: not shown
0.241 nM	137 min	8.43e-05 s⁻¹	350000 M⁻¹ s⁻¹	13 nM	76 min	0.000151 s⁻¹	11600 M⁻¹ s⁻¹										H1H7194P (monovalent 1-arm) (antibody, human IgG1, V domains shown, Monovalent 1-arm: second Fab removed, only the Fc portion (CH2-CH3) expressed; human IgG1 Fc; tied by numerical identifier; also called H1H7194B) VH: EVQLVESGGGLVQPGRSLRLSCAASGFTFGDYTMHWVRQAPGKGLEWVSDISWNSGSKDYADSVKGRFTISRDNAKNSLYLQMNSLRTEDTAFYYCAKDSRGYGLYYHLGLDVWGQGTTVTVSS VL: not shown
0.126 nM	162 min	7.14e-05 s⁻¹	566000 M⁻¹ s⁻¹	3.16 nM	117 min	9.89e-05 s⁻¹	31300 M⁻¹ s⁻¹										H1H7195P (monovalent 1-arm) (antibody, human IgG1, V domains shown, Monovalent 1-arm: second Fab removed, only the Fc portion (CH2-CH3) expressed; human IgG1 Fc; tied by numerical identifier; also called H1H7195B) VH: EVQLVESGGGLVQPGRSLRLSCAASGFTFADYTMHWVRQAPGKGLEWVSDISWNSGSIAYADSVKGRFTISRDNAKNSLYLQMNSLRTEDTAFYYCAKDSRGYGHYKYLGLDVWGQGTTVTVSS VL: not shown
								246 nM	7 min	0.00162 s⁻¹	6570 M⁻¹ s⁻¹	3.38 nM	10 min	0.00112 s⁻¹	331000 M⁻¹ s⁻¹		H1H5801B (antibody, human IgG1, V domains shown, H1H: human IgG1 Fc; divalent) VH: QVQLVQSGGGVVQPGGSLRLSCAASGFTFDDYAMHWVRQAPGKGLEWVSLISGDGGSTYYADSVKGRFTISRDNSKNSLYLQMNSLRTEDTALYYCAKDDSSSSWYYYYYGMDVWGRGTTVTVSS VL: DIQMTQSPSSLSASVGDRVTITCRASQRISSYLNWYQQKPGKAPKVLISVASSLQSGVPSRFSGSGSGTDFTLTISSLQPEDFASYYCQQSYNTPLTFGGGTKVEIKR
																no binding	H1xH7221G5 (monovalent 1-arm) (antibody, V domains shown, Monovalent 1-arm: second Fab removed, only the Fc portion (CH2-CH3) expressed; prefix H1xH not explained) VH: EVQLVESGGGLVQPGRSLRLSCAASGFTFDDYSMHWVRQAPGKGLEWVSGISWNSGSIGYADSVKGRFTISRDNAKNSLYLQMNSLRAEDTALYYCAKDGSGYGKFYYYGMDVWGQGTTVTVSS VL: not shown
1.53 nM	40 min	0.000286 s⁻¹	187000 M⁻¹ s⁻¹	19.2 nM	38 min	0.000307 s⁻¹	16000 M⁻¹ s⁻¹										H1H7223P (monovalent 1-arm) (antibody, human IgG1, V domains shown, Monovalent 1-arm: second Fab removed, only the Fc portion (CH2-CH3) expressed; human IgG1 Fc; tied by numerical identifier; also called H1H7223B) VH: QVQLVESGGGLVQPGRSLRLSCAASGFTFADYTMHWVRQAPGKGLEWVSDISWNSGSMGYADSVKGRFTISRDNAKKSLYLQMNSLRTEDTALYYCAKDGSGYGKYFFYAMDVWGQGTTVTVSS VL: not shown
																no binding	H1xH7221G3 (monovalent 1-arm) (antibody, V domains shown, Monovalent 1-arm: second Fab removed, only the Fc portion (CH2-CH3) expressed; prefix H1xH not explained) VH: EVQLVESGGGLVQPGRSLRLSCAASGFTFDDYSMHWVRQAPGKGLEWVSGISWNSGSIGYADSVKGRFTISRDNAKNSLYLQMNSLRAEDTALYYCAKDGSGYGYFYYYGMDVWGQGTTVTVSS VL: not shown
1.75 nM	48 min	0.000239 s⁻¹	136000 M⁻¹ s⁻¹	27.5 nM	40 min	0.000292 s⁻¹	10700 M⁻¹ s⁻¹										H1H7221P (monovalent 1-arm) (antibody, human IgG1, V domains shown, Monovalent 1-arm: second Fab removed, only the Fc portion (CH2-CH3) expressed; human IgG1 Fc; tied by numerical identifier; also called H1H7221B) VH: EVQLVESGGGLVQPGRSLRLSCVASGFTFDDYSMHWVRQAPGKGLEWVSGISWNSGSKDYADSVKGRFTISRDNAKNSLYLQMNSLRAEDTALYYCAKYGSGYGKFYHYGLDVWGQGTTVTVSS VL: not shown
10 nM	8 min	0.00149 s⁻¹	149000 M⁻¹ s⁻¹	220 nM	7 min	0.00177 s⁻¹	8030 M⁻¹ s⁻¹										H1H7232P (monovalent 1-arm) (antibody, human IgG1, V domains shown, Monovalent 1-arm: second Fab removed, only the Fc portion (CH2-CH3) expressed; human IgG1 Fc; tied by numerical identifier; also called H1H7232B) VH: EVQLVESGGGLVHPGRSLRLSCAASGFTFDDYTMHWVRQAPGKGLEWVSDISWNSGSRGYADSVKGRFTISRDNAENSLYLQMNSLRAEDTALYYCAKDKSGYGHYYYYAMDVWGQGTTVTVSS VL: not shown
0.112 nM	163 min	7.07e-05 s⁻¹	628000 M⁻¹ s⁻¹	6.02 nM	73 min	0.000158 s⁻¹	26300 M⁻¹ s⁻¹										H1H7198P (monovalent 1-arm) (antibody, human IgG1, V domains shown, Monovalent 1-arm: second Fab removed, only the Fc portion (CH2-CH3) expressed; human IgG1 Fc; tied by numerical identifier; also called H1H7198B) VH: EVQLVESGGGLVQPGRSLRLSCAASGFTFADYTMHWVRQVPGKGLEWVSDISWNSGSKDYADSVKGRFTISRDNAKNFLYLQMNSLRAEDTALYYCVKYGSGYGKFYFYAMDVWGQGTTVTVSS VL: not shown
0.565 nM	49 min	0.000236 s⁻¹	418000 M⁻¹ s⁻¹	27.2 nM	33 min	0.000355 s⁻¹	13000 M⁻¹ s⁻¹										H1H7226P (monovalent 1-arm) (antibody, human IgG1, V domains shown, Monovalent 1-arm: second Fab removed, only the Fc portion (CH2-CH3) expressed; human IgG1 Fc; tied by numerical identifier; also called H1H7226B) VH: EVQLVQSGGGLVQPGRSLRLSCAASGFTFSDYTMHWVRQGPGKGLEWVSDISWNSGSKGYTDSVKGRFTISRDNAKKSLYLQMNSLRAEDTALYYCVKDGSGYGKYHFYAMDVWGQGTLVTVSS VL: not shown

Source: patent US20190127480A1 (Regeneron, published 2019)
